These results are taken from US20030149244A1.

For assay [1], the target named is FcεRI-bound human IgE (IgE loaded on CHO 3D10 cells expressing the FcεRI alpha chain) (human) (UniProt P01854). Nature of the assay: FACS on IgE-loaded CHO 3D10 cells (FIG. 4), arithmetic/linear scale.
For assay [2] the target is unchanged. In words: FACS on IgE-loaded CHO 3D10 cells (FIG. 4); called nonspecific by the filing.

Sequence of FcεRI-bound human IgE (IgE loaded on CHO 3D10 cells expressing the FcεRI alpha chain) (human) (P01854 whole entry, chain 1 of 2): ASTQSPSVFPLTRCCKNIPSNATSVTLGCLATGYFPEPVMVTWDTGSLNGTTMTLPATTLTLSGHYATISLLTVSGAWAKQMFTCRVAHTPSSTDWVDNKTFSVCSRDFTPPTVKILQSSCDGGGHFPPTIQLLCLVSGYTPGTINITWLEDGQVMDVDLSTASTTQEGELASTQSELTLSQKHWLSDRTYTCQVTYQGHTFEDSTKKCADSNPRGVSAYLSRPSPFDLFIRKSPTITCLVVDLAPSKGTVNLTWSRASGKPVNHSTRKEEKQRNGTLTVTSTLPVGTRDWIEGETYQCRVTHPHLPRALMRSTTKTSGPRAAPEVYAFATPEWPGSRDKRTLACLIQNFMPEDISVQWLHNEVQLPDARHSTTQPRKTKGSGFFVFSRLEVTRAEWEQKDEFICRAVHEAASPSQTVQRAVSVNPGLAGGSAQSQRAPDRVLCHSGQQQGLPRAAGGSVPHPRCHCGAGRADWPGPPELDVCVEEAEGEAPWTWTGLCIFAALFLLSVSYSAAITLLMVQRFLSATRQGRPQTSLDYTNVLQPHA
Sequence of FcεRI-bound human IgE (IgE loaded on CHO 3D10 cells expressing the FcεRI alpha chain) (human) (P12319 26-257, chain 2 of 2, further chain): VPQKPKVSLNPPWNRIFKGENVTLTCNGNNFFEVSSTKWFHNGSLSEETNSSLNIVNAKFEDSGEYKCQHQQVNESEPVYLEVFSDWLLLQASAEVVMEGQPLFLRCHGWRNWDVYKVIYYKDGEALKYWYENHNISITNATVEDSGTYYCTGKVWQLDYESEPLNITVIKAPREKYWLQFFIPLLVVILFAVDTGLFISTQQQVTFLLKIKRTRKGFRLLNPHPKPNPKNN

In assay [1], MOPC21 (antibody) showed a mean channel fluorescence at 0.1 µg/ml of 7.3. The nonspecific background binding (percent) in assay [2] is 10%.
